# Laboratory results reported in patent US20070269440A1, “Stimulators of osteoblastogenesis and applications of the same” (Board of Trustees of the University of Arkansas, priority 2006, published 2007).
# B1: sTNF-RI: soluble TNF receptor Type I, a TNF blocker (TNF antagonist) (protein, UniProt P19438 30-211, looked up)
# extracellular domain: LVPHLGDREKRDSVCPQGKYIHPQNNSICCTKCHKGTYLYNDCPGPGQDTDCRECESGSFTASENHLRHCLSCSKCRKEMGQVEISSCTVDRDTVCGCRKNQYRHYWSENLFQCFNCSLCLNGTVHLSCQEKQNTVCTCHAGFFLRENECVSCSNCKKSLECTKLCLPQIENVKGTEDSGTT
# modifications: extracellular domain
# Assays:
# [1] = tested on: distracted tibia of 21-month-old C57BL6 mice; assay: Distraction osteogenesis in aged mice, new bone in DO gap by single-beam radiography; type: in vivo, mouse; conditions: 21-month old mice, sTNF-RI 8.0 mg/kg s.c. every other day, 3-day latency, 14 days of distraction; control 27.3±8.4%, p<0.038
# Text: For initial radiography a Xerox Micro 50 closed system radiography unit (Xerox, Pasadena, Calif.) was used at 40 kilovolts (3 mA) for 20 seconds with Kodak X-OMAT film to radiograph the specimens. For quantitation, the radiographs and histology slides are video recorded by radio camera under low power (1.25× objective) microscopic magnification and transferred into a computer (Macintosh IIx Image 1.28c). The radiographs allow for quantitation of mineralized bone within the distraction gap. The measured distraction gap area was outlined from the outside corners of the two proximal and the two distal cortices forming a quadrilateral region of interest. The mineralized new bone area in the gap was determined by outlining the regions with radiodensity equivalent to or greater than the adjacent medullary bone. Mean pixel density of the defined distraction gap was measured using NIH Image on an arbitrary 256 degree scale. […] The percentage of new mineralized bone area within the distraction gap (% new bone) was calculated by dividing mineralized bone area/gap area. (6, 7).
# Twenty-four 21-month-old C57BL6 mice underwent placement of an external fixator and osteotomy to the left tibia. The surgeries were completed over a four-day period. After surgeries there were eleven mice in the control group (one died during surgery) and twelve mice in the group to be treated with sTNF-RI. […]
# [2] = tested on: distracted tibia of 21-month-old C57BL6 mice; assay: Distraction osteogenesis in aged mice, new bone in DO gap by histology; type: in vivo, mouse; conditions: 21-month old mice, sTNF-RI 8.0 mg/kg s.c. every other day, 3-day latency, 14 days of distraction; control 31.2±12.4%, p<0.009
# Text: After radiography, the distracted tibiae were decalcified in 5% formic acid. The specimens were paraffin-embedded and cut into 5-7 micron longitudinal (coronal) sections on a microtome (Leitz 1512, Wetzlar, Germany) for staining (hematoxylin & eosin). The sections chosen for analysis were selected to represent a central or near central gap location. This was accomplished by choosing slides that contained all four full thickness cortices with intact marrow spaces on both the proximal and distal ends of the distraction gap. All organized osteoid/sinusoid columns were defined as new bone. We defined periosteal new bone as that outside of each cortex and endosteal new bone as that within the cortices. […] The distraction gap area was outlined from the outside corners of the two proximal and the two distal cortices forming a quadrilateral region of interest, and the area of that region (gap area) was recorded. Both the proximal and distal endosteal new bone matrix, which is easily distinguished from the central fibrous tissue at the PMF, was outlined and the area recorded (new bone area). The percentage of new bone within the distraction gap was calculated by dividing new bone area/gap area (8, 9-11). […]
molecule,measurement,setting,value
B1,"Mineralization of the DO gap, as measured from the radiographs (% of the distraction gap)",[1],55.2±8.8 % SEM
same,"Mineralization of the DO gap, as measured histologically (% of the distraction gap)",[2],76.1±7.5 % SEM
